Measurements as given in patent publication US20190241662A1 (ADAGENE, published 2019).

T1: recombinant human CTLA4 fused with human Fc and His tag (human, UniProt P16410 36-162, limits assumed)
T1 construct: Coated in the CD80 ELISA, biotinylated and in solution in the CD86 ELISA; also called biotinylated human CTLA4 fused with human FC and His tag
T1 sequence (looked up): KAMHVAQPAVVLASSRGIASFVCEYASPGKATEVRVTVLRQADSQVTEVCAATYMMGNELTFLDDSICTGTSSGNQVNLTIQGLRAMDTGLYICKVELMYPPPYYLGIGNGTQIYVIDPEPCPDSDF

T2: full-length human CTLA4 expressed on cells (human, UniProt P16410 36-223)
T2 sequence (looked up): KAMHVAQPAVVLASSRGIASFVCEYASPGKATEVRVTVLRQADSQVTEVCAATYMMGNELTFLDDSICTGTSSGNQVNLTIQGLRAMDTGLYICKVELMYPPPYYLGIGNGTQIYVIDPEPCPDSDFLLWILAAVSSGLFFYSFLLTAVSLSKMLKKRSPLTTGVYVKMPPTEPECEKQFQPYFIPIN

T3: biotinylated rat CTLA4 protein fused with human FC (rat, UniProt Q62859 36-161, Biotinylated; sites not stated)
T3 sequence: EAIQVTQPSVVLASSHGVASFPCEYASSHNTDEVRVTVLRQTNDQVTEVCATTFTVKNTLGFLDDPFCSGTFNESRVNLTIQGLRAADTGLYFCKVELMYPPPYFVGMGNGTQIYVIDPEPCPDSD

T4: human Tim3 on HEK293F cells (human, UniProt Q8TDQ0 22-301)
T4 construct: whole, on cells
T4 sequence (looked up): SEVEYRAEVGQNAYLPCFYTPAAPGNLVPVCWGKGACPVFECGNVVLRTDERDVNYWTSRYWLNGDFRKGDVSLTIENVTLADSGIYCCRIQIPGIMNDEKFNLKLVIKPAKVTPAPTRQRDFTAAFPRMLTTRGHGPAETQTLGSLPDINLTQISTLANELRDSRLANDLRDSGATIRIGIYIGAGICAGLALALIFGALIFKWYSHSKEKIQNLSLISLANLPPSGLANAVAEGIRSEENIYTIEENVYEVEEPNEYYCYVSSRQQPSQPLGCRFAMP

T5: human LAG3 on HEK293F cells (human, UniProt P18627 23-525)
T5 construct: whole, on cells
T5 sequence (looked up): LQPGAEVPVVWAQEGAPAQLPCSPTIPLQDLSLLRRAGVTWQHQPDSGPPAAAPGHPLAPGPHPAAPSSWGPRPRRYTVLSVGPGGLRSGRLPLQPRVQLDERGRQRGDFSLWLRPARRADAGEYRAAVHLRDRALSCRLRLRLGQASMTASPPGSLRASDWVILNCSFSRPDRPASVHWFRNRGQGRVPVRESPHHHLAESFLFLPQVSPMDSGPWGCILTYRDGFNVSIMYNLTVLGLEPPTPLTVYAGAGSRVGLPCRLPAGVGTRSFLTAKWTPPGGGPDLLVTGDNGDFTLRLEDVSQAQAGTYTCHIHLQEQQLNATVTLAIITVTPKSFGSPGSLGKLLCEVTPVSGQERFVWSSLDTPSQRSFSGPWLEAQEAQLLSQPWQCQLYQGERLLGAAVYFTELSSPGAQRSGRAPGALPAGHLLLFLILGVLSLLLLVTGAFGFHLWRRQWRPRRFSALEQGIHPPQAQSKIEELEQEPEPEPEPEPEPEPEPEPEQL


Assays:
[1] = target: T1, recombinant human CTLA4 fused with …; assay: competition ELISA: plate-bound human CD86-Fc, biotinylated human CTLA4-Fc-His in solution
Experimental: Plates were blocked with PBS supplemented with 2% (w/v) skim milk at 37° C. for 1 hour. […] Plates were washed four times, and 100 μL HRP-neutravidin (1:1000) were added to each well and incubated at 37° C. for 1 hr. Plates were washed as previously described, and 50 μL TMB substrate solution was added and incubated at room temperature for 5 minutes before the reaction was stopped by 50 μL sulfate acid (2M).

[2] = target: T2, full-length human CTLA4 expressed on …; assay: cell-based or functional assay
[3] = target: T2, full-length human CTLA4 expressed on …; assay: cell-based or functional assay; remark: listed apart in the source
[4] = target: T3, biotinylated rat CTLA4 protein fused …; assay: BLI (ForteBio), biotinylated rat CTLA4-Fc on SA sensor, IgG 15 ug/mL
From the text: The association and dissociation curves were fitted to a 1:1 Langmuir binding model using ForteBio Data Analysis 7.1 (Pall, USA) according to the manufacturer's guidelines.

[5] = target: T4, human Tim3 on HEK293F cells; assay: flow cytometry, transfected HEK293F cells [Cont.]
Experimental: (§1) Antibody selectivity was next examined. Human CTLA4, PD1, LAG3, Tim3, B7H3, CD95, TNFR1, OX40, CD40, PD-L1, BLTA, VISTA, PDL2, ICOS and B7H4 were transiently overexpressed on the surface of HEK293F cells. Transfected cells were washed in pre-chilled 1×PBSA buffer (1.76 mM KH2PO4, 10.14 mM Na2HPO4.12H2O, 2.68 mM KCl, 136.89 mM NaCl and 1% BSA), then incubated with 100 nM test antibodies for 1 hour on ice. Cells were washed once with staining buffer, and Alexa Fluor® 647 conjugated mouse anti-human FC antibodies were added and incubated for 30 minutes on ice, protected from light. Samples were washed once with staining buffer prior to analysis by flow cytometry.

[6] = target: T5, human LAG3 on HEK293F cells; assay: flow cytometry, transfected HEK293F cells
Experimental: as §1

[7] = target: T6, human PD1 on HEK293F cells (human, UniProt Q15116 25-288); assay: flow cytometry, transfected HEK293F cells
T6 construct: whole, on cells
T6 sequence (Q15116 25-288): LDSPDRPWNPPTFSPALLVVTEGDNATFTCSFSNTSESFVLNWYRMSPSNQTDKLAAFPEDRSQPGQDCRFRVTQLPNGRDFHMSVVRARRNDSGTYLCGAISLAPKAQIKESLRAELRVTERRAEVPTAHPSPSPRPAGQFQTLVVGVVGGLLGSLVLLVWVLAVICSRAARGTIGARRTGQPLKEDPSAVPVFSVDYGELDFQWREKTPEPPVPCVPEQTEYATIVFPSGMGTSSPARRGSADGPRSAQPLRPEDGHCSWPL
Experimental: as §1

[8] = target: T2, full-length human CTLA4 expressed on …; assay: flow cytometry blocking: HEK293F cells with human CTLA4, 100 nM antibody, then 100 nM CD86-Fc-Bio (blocked ligand); PBSA panel: Mean 10678, 12.2%
Experimental: Antibodies were also tested for their ability to block binding of CTLA4 to its cognate ligands CD80 and CD86 by flow cytometry. The plasmid encoding full-length human CTLA4 was transiently expressed in HEK293F cells. Cells were washed with staining buffer (PBSA buffer including 1.76 mM KH₂PO₄, 10.14 mM Na₂HPO₄.12H₂O, 2.68 mM KCl, 136.89 mM NaCl and 1% BSA), and resuspended in staining buffer containing 100 nM test antibodies. […] Cells were washed once, and analyzed by CytoFlex flow cytometry.

[9] = target: T2, full-length human CTLA4 expressed on …; assay: flow cytometry blocking: HEK293F cells with human CTLA4, 100 nM antibody, then 100 nM CD80-Fc-Bio (blocked ligand); PBSA panel: Mean 157692, 26.3%

Binder | IC50 (read off the curve) [1] | EC50 for ADCC reporter signaling (Jurkat/NFAT-Luc/CD16 with HEK293F/hCTLA4 cells) [2] | EC50 for TCR/CD28 pathway activation (luciferase reporter, CTLA4 blockade bioassay) [3] | Kd [4] | binding result [5] | binding result [6] | binding result [7] | % of cells in upper right quadrant (CD86-positive) in the presence of the antibody [8] | Mean of the CD86 binding signal in the presence of the antibody [8] | % of cells in upper right quadrant (CD80-positive) in the presence of the antibody [9] | Mean of the CD80 binding signal in the presence of the antibody [9]
TY21687 (antibody, V domains shown, human IgG1 (hIgG1) from Fab hit B15700) VH: EVQLVESGGGLVQPGGSLRLSCAASGFTFSGYAIHWVRQAPGKGLEWIGIISPSGGGTKYAQKFQGRVTISRDNSKNTLYLQLNSLRAEDTAVYYCARHPFAYWGQGTLVTVSS VL: DIQLTQSPSSLSASVGDRVTITCRASQSVDFYGISFLDWYQQKPGKAPKLLIYDASNRATGIPSRFSGSGSGTDFTLTISSLQPEDFATYYCQQYVSSPPEYTFGQGTKVEIK | ~10 nM | 9.5 µg/mL | 5.01 µg/mL | 0.78 nM | no binding (tested: 100 nM) |  |  |  |  |  | 
TY21585 (antibody, V domains shown, human IgG1 (hIgG1) from Fab hit B15709) VH: EVQLVESGGGLVQPGGSLRLSCAASGFTFSDYAIHWVRQAPGKGLEWIGIISPSSGSTNYAQKFQGRVTISRDNSKNTLYLQLNSLRAEDTAVYYCARDIHSGSSGYYYGFDVWGQGTLVTVSS VL: DIQLTQSPSSLSASVGDRVTITCRASESVDFFGISFLAWYQQKPGKAPKLLIYDASNRATGIPSRFSGSGSGTDFTLTISSLQPEDFATYYCQHYTSSPPVYTFGQGTKVEIK |  |  |  |  | no binding (tested: 100 nM) | no binding (tested: 100 nM) | no binding (tested: 100 nM) | 3.43% | 5140 | 22.5% | 83700
TY21691 (antibody, V domains shown, human IgG1 (hIgG1) from Fab hit B15736) VH: EVQLVESGGGLVQPGGSLRLSCAASGFTFSDYAIHWVRQAPGKGLEWIGIISPSGGSTKYAQKFQGRVTISRDNSKNTLYLQLNSLRAEDTAVYYCARLGYGYFDVWGQGTLVTVSS VL: DIQLTQSPSSLSASVGDRVTITCRASQSVDFYGISFLHWYQQKPGKAPKLLIYDASSLESGVPSRFSGSGSGTDFTLTISSLQPEDFATYYCVQALQLPLTFGQGTKVEIK | ~20 nM | > 10 µg/mL | 2.64 µg/mL | 0.58 nM |  | no binding (tested: 100 nM) | no binding (tested: 100 nM) |  |  |  | 
TY21591 (antibody, V domains shown, human IgG1 (hIgG1) from Fab hit B15756) VH: EVQLVESGGGLVQPGGSLRLSCAASGFSLSTGGVAVSWIRQAPGKGLEWIGEIYHSGSTYYSPSLKSRVTISRDNSKNTLYLQLNSLRAEDTAVYYCARRIATATYFDYWGQGTLVTVSS VL: DIQLTQSPSSLSASVGDRVTITCRASQTVFSRYLAWYQQKPGKAPKLLIYDASNRATGIPSRFSGSGSGTDFTLTISSLQPEDFATYYCQQSYYWPPWTFGQGTKVEIK |  |  |  |  |  |  |  | 0.61% | 4960 | 24.9% | 68500
